Test results taken from patent US6962971B2, “Chemokines and methods for inducing the differentiation of fibroblasts to myofibroblasts” (The Regents of the University of California, priority 2001, dated 2005).
Values joined by “and” are separate entries in the source; they are usually repeats but may differ in a detail not shown here. Equal values may be shown once. “Also recorded” adds a separate entry of the source.

How the values were obtained:
[1] = test system: fibroblast-seeded collagen gels; assay: Collagen gel contraction by fibroblasts; format: cell-based, chicken
Experimental: 1.5 ml Vitrogen 100 collagen gels were made in 35 mm plates. Secondary fibroblasts were plated at 0.4×10^6 cells/35 mm plate on top of the gels. After the cells had adhered to the collagen, cCAF was added to experimental plates. The medium was replaced approximately every 16 hr with 1 ml of 199 supplemented with 0.3% tryptose phosphate broth and 2% donor calf serum, and 750 ng cCAF [68 nM] or N-peptide [480 nM] was added to the experimental plates. Control plates contained media only. After 4 days, gels were released. Treatment was continued for 2 more days and gels were photographed every 12 hours. The photographs were used for evaluation of gel contraction by determining the area of the gel using NIH image analysis.

[2] = test system: primary chicken embryonic connective tissue fibroblasts; assay: Fibroblast growth assay; format: cell-based
Experimental: Primary chicken embryonic connective tissue fibroblasts (CEFs) were cultured as previously described in Martins-Green and Feugate (1998). Briefly, these fibroblasts were isolated from 10-day-old chicken embryo body walls, plated at 6×10^6 cells/100 mm plate and cultured for 4 days in 199 medium with 5% donor calf serum, 1% chick serum and 0.3% tryptose phosphate broth. These cultures were passaged once (secondary cultures); the cells were plated at 0.4×10^6 cells/35 mm plate in 199/tryptose phosphate broth and 2% donor calf serum.
Secondary fibroblasts were plated at 0.4×10^6 cells/35 mm plate and cCAF was added to experimental plates. For each experiment, plating efficiency was determined by trypsinizing plates four hours after plating. Cells were counted with a Coulter particle counter to confirm even plating of cells. The media was replaced approximately every 16 hr with 1 ml of […] 199 medium containing 0.3% tryptose phosphate broth and 2% donor calf serum, and 100-1000 ng cCAF [9-90 nM] or C- or N-peptide [64-640 nM] was added to the experimental plates, whereas, control plates contained media only. On day 3, plates were trypsinized to remove all cells and cells were counted using a Coulter counter. To test for specificity, anti-cCAF rabbit serum was pre-incubated with cCAF (3 μl serum/750 ng cCAF [68 nM] or N-peptide [480 nM]) for 1 hr at room temperature before being added to cells.

α-SMA [3] = assay: Immunoblotting for α-SMA in fibroblast extracts; format: cell-based, chicken; conditions: 750 ng/ml; versus untreated or C-peptide treated cells
Experimental: Plates of fibroblasts were treated as described previously, with 750 ng/ml cCAF or 2.5 ng/ml TGFβ. To block TGFβ, or cCAF activity, anti-cCAF (3 μl) or anti-TGFβ (1 μl) antibody was pre-incubated in 1 ml media for 1 hr at room temperature before being added to cells. After 4 days of treatment, protein extracts were prepared in 1 ml 150 mM RIPA buffer containing protease inhibitors. Protein concentrations were determined using the DC protein assay kit and samples were adjusted to contain equal amounts of protein. SDS-PAGE was performed on 7.5% separating Doucet gels (Doucet and Trifaro, 1988). Protein transfer to nitrocellulose was performed using a wet-transfer apparatus (Bio-Rad) at 100V for 45 min. The membranes were blocked for 1 hr in 5% milk in TTBS and then incubated overnight at 4° C. in mouse anti-α-SMA, to a final IgG concentration of 5 μg/ml, in 1% milk in TTBS. The membranes were washed 3 times for 20 min each with TTBS, incubated in anti-mouse HRP at 1:10,000 in 1% milk for 1hr and washed as above, and the bands visualized using the ECL.

α-SMA [4] = assay: Immunostaining for α-SMA in granulation tissue of excision wounds; format: in vivo, chicken; conditions: 1 μg cCAF every other day; versus vehicle
Experimental: At the specified time points, chickens were euthanized with sodium pentobarbitol. The wounded wings were collected and fixed for 18 hrs in 4% paraformaldehyde and decalcified for 3 days in 5% formic acid, 2.5% formaldehyde at 4° C. The tissue was embedded in paraffin and sectioned. Sections were stained with Masson Trichrome to visualize interstitial collagen. Other sections were immunolabeled for α-SMA. Sections were deparaffinized with 3×15 min washes in Hemo-De and rehydrated in 5 min washes of ethanol (100%, 95%, 70%, 50%, 30%). After rinsing with PBS, sections were fixed in 2% paraformaldehyde 1 hr. General autofluoresence and non-specific staining were blocked by 30 min in 0.1M glycine in PBS, followed by 30 min in 1% Evans Blue in PBS to quench red blood cell autofluorescence. Sections were incubated with α-SMA antibody in 1% BSA in PBS (1:50) for 2 hr at room temperature. After 3×10 min washes in 0.1% BSA in PBS, the sections were incubated for 40 min with anti-mouse Alexa antibody in 1% BSA in PBS (1:200). They were then washed and mounted with Vectashield.

B1: cCAF: CXC chemokine chicken Chemotactic and Angiogenic Factor, full-length, SEQ ID NO:2; purified or synthesized (protein)
chain: LSQGRTLVKMGNELRCQCISTHSKFIHPKSIQDVKLTPSGPHCKNVEIIATLKDGREVCLDPTAPWVQLIVKALMAKAQLNSDAPL
modifications: Gallusgallus
notes: purified or synthesized
contraction of collagen gels after release ([1]; 750 ng/ml, 4-5 days treatment before release, versus untreated cells): much greater contraction; also recorded: stimulated fibroblasts to contract collagen gels more efficiently than untreated cells; also recorded: contracted the gels more tightly than did untreated cells
contraction of fibroblast clusters on collagen ([1]; versus control cells): form clusters that are much tighter and generally pull away from the collagen; also recorded: more contracted than clusters in control cells
time required for the decrease in cell numbers to be detected [2]: 2 to 3 days
effect on fibroblast growth / cell numbers ([2]; 3 days treatment, 2% donor calf serum): suppresses fibroblast proliferation in a dose-dependent pattern
dose of greatest (maximum) suppression of fibroblast proliferation ([2]; 3 days treatment, increasing doses of cCAF): 750 ng/mL and 500 to 750 ng/mL
time of greatest suppression of proliferation ([2]; after plating, not shown): 2 days
suppression of fibroblast proliferation compared to untreated cells ([2]; fibroblasts cultured in the presence of serum (2% donor calf serum), p<0.01): 25%
fibroblast growth relative to untreated cells ([2]; of untreated cells): about 75%
α-SMA levels by immunoblot (α-SMA [3]): much higher levels of α-SMA; also recorded: increased levels of α-SMA
cells labeling for α-SMA in granulation tissue, day 3 (α-SMA [4]): numerous cells labeling for α-SMA; also recorded: many more cells that label for α-SMA
cells labeling for α-SMA in granulation tissue, day 5 (α-SMA [4]): many more myofibroblasts than the control wounds; also recorded: many more cells staining for α-SMA
cells labeling for α-SMA in granulation tissue, day 7 (α-SMA [4]): continue to have more labeled cells than do control wounds
